These results are taken from patent US20190263889A1.

The target in test [1] is CTLA-4Fc mutant protein M1 (human (murine residues substituted)). In words: ELISA; binder 10 ng/ml on coated target. On the technique in general: ELISA stands for enzyme-linked immunosorbent assay.
The target of test [2] is CTLA-4Fc mutant protein M10 (human (murine residues substituted)). In words: ELISA; binder 10 ng/ml on coated target.
Test [3] has as its target CTLA-4Fc mutant protein M11 (human (murine residues substituted)). In words: ELISA; binder 10 ng/ml on coated target.
In test [4] the target is CTLA-4Fc mutant protein M2 (human (murine residues substituted)). The test is described as follows: ELISA; binder 10 ng/ml on coated target.
Chain of CTLA-4Fc mutant protein M2 (human (murine residues substituted)) (chain, as listed by the source mutant): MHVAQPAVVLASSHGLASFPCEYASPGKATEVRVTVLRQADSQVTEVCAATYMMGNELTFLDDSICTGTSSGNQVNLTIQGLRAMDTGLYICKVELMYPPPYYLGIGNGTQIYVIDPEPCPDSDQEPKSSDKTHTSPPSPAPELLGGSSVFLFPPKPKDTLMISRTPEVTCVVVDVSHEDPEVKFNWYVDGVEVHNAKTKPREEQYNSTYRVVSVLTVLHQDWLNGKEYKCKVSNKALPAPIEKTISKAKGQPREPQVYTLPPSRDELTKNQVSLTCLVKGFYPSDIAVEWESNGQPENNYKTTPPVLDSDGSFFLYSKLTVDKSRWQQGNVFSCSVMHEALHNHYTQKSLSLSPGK
For test [5], the target named is CTLA-4Fc mutant protein M3 (human (murine residues substituted)). The test is described as follows: ELISA; binder 10 ng/ml on coated target.
Chain of CTLA-4Fc mutant protein M3 (human (murine residues substituted)) (chain, as listed by the source mutant): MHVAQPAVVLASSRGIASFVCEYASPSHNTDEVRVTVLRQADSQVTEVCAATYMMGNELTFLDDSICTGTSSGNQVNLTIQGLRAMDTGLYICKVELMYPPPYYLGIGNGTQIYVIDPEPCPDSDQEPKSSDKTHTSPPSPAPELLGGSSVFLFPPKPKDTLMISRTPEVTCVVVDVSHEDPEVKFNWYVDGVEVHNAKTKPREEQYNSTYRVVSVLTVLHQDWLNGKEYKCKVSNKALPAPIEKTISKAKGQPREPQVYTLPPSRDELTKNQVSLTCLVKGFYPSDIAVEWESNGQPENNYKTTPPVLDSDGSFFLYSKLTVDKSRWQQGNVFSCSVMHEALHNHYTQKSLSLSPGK
Test [6] addresses CTLA-4Fc mutant protein M4 (human (murine residues substituted)). The test is described as follows: ELISA; binder 10 ng/ml on coated target.
The target of test [7] is CTLA-4Fc mutant protein M5 (human (murine residues substituted)). The test is described as follows: ELISA; binder 10 ng/ml on coated target.
Chain of CTLA-4Fc mutant protein M5 (human (murine residues substituted)) (chain, as listed by the source mutant): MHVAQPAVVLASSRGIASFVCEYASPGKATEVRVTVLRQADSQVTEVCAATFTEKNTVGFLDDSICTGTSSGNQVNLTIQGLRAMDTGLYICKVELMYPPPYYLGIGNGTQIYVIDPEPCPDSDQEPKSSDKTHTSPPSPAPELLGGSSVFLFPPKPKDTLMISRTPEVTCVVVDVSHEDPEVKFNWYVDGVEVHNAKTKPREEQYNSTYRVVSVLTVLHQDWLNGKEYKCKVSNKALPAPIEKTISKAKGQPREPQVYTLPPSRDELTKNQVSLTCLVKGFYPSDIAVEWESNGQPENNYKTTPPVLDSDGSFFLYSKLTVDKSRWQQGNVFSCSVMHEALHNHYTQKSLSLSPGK
In test [8] the target is CTLA-4Fc mutant protein M6 (human (murine residues substituted)). In words: ELISA; binder 10 ng/ml on coated target.
Chain of CTLA-4Fc mutant protein M6 (human (murine residues substituted)) (chain, as listed by the source mutant): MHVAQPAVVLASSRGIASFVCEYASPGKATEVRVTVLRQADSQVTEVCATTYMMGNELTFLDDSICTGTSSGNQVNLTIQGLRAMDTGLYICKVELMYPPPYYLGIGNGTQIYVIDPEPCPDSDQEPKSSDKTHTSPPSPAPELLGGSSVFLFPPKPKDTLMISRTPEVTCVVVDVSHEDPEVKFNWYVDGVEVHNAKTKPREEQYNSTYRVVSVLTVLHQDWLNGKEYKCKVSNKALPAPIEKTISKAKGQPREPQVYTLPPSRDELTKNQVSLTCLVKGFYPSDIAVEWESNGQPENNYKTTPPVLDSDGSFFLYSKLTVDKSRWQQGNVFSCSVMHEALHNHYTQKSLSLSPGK
For test [9], the target named is CTLA-4Fc mutant protein M7 (human (murine residues substituted)). The test is described as follows: ELISA; binder 10 ng/ml on coated target.
Chain of CTLA-4Fc mutant protein M7 (human (murine residues substituted)) (chain, as listed by the source mutant): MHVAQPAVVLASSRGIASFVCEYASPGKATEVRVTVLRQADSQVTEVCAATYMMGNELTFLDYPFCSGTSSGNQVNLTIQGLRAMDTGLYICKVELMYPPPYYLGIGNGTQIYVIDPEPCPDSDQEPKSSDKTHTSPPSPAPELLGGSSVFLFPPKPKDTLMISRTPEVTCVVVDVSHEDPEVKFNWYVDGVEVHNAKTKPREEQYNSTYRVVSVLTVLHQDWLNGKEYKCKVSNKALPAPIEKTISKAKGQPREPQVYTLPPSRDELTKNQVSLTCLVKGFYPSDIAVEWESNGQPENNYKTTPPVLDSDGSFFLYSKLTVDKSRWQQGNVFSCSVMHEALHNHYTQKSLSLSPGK
In test [10] the target is CTLA-4Fc mutant protein M8 (human (murine residues substituted)). In words: ELISA; binder 10 ng/ml on coated target.
Chain of CTLA-4Fc mutant protein M8 (human (murine residues substituted)) (chain, as listed by the source mutant): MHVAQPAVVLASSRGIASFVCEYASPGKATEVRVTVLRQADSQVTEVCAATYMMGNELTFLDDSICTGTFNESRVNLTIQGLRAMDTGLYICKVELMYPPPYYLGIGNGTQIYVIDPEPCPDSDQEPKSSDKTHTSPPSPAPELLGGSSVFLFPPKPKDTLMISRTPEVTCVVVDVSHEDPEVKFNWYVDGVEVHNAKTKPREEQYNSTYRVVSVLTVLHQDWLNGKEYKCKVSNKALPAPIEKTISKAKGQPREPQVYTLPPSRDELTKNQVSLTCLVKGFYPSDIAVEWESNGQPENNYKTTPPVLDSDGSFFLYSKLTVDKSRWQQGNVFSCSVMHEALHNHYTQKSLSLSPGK
Test [11] concerns the target CTLA-4Fc mutant protein M9 (human (murine residues substituted)). In words: ELISA; binder 10 ng/ml on coated target.
In test [12] the target is human IgG1-Fc control (human) [IgG part: P01857]. In words: ELISA; binder 10 ng/ml on coated target.
Test [13] deals with mouse CTLA-4-Fc (mouse) (UniProt P09793). In words: ELISA; binder 10 ng/ml on coated target.
Chain of mouse CTLA-4-Fc (mouse) (P09793 36-161 limits assumed): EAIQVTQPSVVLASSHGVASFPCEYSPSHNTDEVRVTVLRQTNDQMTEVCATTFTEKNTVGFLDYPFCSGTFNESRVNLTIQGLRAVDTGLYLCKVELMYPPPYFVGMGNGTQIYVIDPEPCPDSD
Test [14] has as its target wild type human CTLA-4Fc fusion protein (abatacept) (human). In words: ELISA; binder 10 ng/ml on coated target.
The target in test [15] is CTLA-4Fc mutant protein M11 (human (murine residues substituted)). In words: ELISA; binder 100 ng/ml on coated target.
Chain of CTLA-4Fc mutant protein M11 (human (murine residues substituted)) (chain, as listed by the source mutant): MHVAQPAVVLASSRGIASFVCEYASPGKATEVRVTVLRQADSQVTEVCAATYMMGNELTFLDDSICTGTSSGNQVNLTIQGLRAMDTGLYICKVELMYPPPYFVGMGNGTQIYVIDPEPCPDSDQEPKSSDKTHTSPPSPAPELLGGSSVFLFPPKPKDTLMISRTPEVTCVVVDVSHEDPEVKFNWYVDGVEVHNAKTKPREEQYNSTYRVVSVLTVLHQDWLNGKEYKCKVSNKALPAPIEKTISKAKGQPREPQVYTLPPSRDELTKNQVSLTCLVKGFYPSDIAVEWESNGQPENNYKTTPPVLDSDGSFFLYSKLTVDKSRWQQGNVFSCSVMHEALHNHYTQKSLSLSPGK
The target in test [16] is CTLA-4Fc mutant protein M2 (human (murine residues substituted)). In words: ELISA; binder 100 ng/ml on coated target.
Test [17] addresses CTLA-4Fc mutant protein M6 (human (murine residues substituted)). In words: ELISA; binder 100 ng/ml on coated target.
In test [18] the target is mouse CTLA-4-Fc (mouse) (UniProt P09793). The test is described as follows: ELISA; binder 100 ng/ml on coated target.
Test [19] addresses wild type human CTLA-4Fc fusion protein (abatacept) (human). In words: ELISA; binder 100 ng/ml on coated target.

“And” between values parts separate entries of the source, which are not always exact repeats. Equal values may be shown once.

Chain of wild type human CTLA-4Fc fusion protein (abatacept) (human) (chain, as listed by the source limits assumed): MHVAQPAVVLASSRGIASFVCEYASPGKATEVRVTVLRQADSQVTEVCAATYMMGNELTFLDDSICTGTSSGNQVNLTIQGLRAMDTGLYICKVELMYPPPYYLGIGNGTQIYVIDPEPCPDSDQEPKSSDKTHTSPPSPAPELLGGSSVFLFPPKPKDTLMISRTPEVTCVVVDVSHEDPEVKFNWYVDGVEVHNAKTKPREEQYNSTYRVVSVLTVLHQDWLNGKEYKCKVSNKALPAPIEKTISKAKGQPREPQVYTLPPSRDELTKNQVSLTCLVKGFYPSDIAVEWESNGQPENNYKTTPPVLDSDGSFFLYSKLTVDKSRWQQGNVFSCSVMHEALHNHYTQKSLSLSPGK
Chain of CTLA-4Fc mutant protein M4 (human (murine residues substituted)) (chain, as listed by the source mutant): as the sequence (chain, as listed by the source limits assumed) above, with Q39T, A40N, S42Q, Q43M counted along it
Chain of CTLA-4Fc mutant protein M1 (human (murine residues substituted)) (chain, as listed by the source mutant): as the sequence (chain, as listed by the source limits assumed) above, with M1I, H2Q, A4T, A7S counted along it
Chain of CTLA-4Fc mutant protein M9 (human (murine residues substituted)) (chain, as listed by the source mutant): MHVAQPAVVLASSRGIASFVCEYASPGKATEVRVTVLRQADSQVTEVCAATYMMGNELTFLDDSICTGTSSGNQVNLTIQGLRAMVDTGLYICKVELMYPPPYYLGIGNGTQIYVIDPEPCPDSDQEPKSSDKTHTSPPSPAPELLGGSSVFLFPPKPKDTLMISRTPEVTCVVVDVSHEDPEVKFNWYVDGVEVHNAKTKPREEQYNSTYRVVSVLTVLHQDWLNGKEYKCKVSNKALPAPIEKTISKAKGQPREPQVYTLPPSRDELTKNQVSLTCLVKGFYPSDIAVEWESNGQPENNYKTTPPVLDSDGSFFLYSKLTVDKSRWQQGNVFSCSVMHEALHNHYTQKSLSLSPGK
Chain of CTLA-4Fc mutant protein M10 (human (murine residues substituted)) (chain, as listed by the source mutant): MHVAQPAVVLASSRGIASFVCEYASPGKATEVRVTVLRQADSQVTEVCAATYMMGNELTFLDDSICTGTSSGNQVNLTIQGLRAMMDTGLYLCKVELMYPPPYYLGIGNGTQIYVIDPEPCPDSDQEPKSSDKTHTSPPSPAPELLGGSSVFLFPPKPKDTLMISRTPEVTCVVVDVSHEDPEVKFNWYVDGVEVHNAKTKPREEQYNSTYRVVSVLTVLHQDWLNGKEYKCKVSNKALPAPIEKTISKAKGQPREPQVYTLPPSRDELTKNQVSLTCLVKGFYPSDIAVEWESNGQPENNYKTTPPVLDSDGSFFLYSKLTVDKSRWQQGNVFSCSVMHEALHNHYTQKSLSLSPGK

Take “chimeric L3D10 anti-human CTLA-4 antibody”: the OD450 is 2.69 OD450 and 2.78 OD450 in [1]; 0.157 OD450 in [2]; 0.19 OD450 and 0.194 OD450 in [3]; 0.469 OD450 and 0.333 OD450 in test [4]; 0.623 OD450 and 0.593 OD450 in test [5]; 0.817 OD450 and 0.563 OD450 in [6]. Further, the OD450 was 1.85 OD450 and 1.8 OD450 in [7]; 1.24 OD450 and 1.88 OD450 in [8]; 0.837 OD450 and 0.884 OD450 in test [9]; 1.27 OD450 and 1.45 OD450 in test [10]; 0.158 OD450 and 0.213 OD450 in test [11]; 0.201 OD450 and 0.182 OD450 in [12]. Further, the OD450 in the test with mouse CTLA-4-Fc (mouse) [13] is 0.201 OD450 and 0.18 OD450; in [14], 1.71 OD450 and 1.8 OD450; in test [15], 0.752 OD450 and 0.746 OD450; in test [16], 1.31 OD450 and 1.37 OD450; in [17] it was 3.03 OD450; with mouse CTLA-4-Fc (mouse) [18], 0.303 OD450 and 0.314 OD450. In addition, the OD450 in test [19] was 3.32 OD450 and 3.46 OD450.
